# Test results taken from US10206886B2, “Lipid nanoparticles for wound healing” (Praxis Biopharma Research Institute, priority 2013, dated 2019).
# B1: free rhEGF: Non-encapsulated recombinant human epidermal growth factor; 75 μg of lyophilised rhEGF similar to commercialised Heberprot (protein, UniProt P01133 23-1207, looked up)
# Pro-epidermal growth factor: PQHWSCPEGTLAGNGNSTCVGPAPFLIFSHGNSIFRIDTEGTNYEQLVVDAGVSVIMDFHYNEKRIYWVDLERQLLQRVFLNGSRQERVCNIEKNVSGMAINWINEEVIWSNQQEGIITVTDMKGNNSHILLSALKYPANVAVDPVERFIFWSSEVAGSLYRADLDGVGVKALLETSEKITAVSLDVLDKRLFWIQYNREGSNSLICSCDYDGGSVHISKHPTQHNLFAMSLFGDRIFYSTWKMKTIWIANKHTGKDMVRINLHSSFVPLGELKVVHPLAQPKAEDDTWEPEQKLCKLRKGNCSSTVCGQDLQSHLCMCAEGYALSRDRKYCEDVNECAFWNHGCTLGCKNTPGSYYCTCPVGFVLLPDGKRCHQLVSCPRNVSECSHDCVLTSEGPLCFCPEGSVLERDGKTCSGCSSPDNGGCSQLCVPLSPVSWECDCFPGYDLQLDEKSCAASGPQPFLLFANSQDIRHMHFDGTDYGTLLSQQMGMVYALDHDPVENKIYFAHTALKWIERANMDGSQRERLIEEGVDVPEGLAVDWIGRRFYWTDRGKSLIGRSDLNGKRSKIITKENISQPRGIAVHPMAKRLFWTDTGINPRIESSSLQGLGRLVIASSDLIWPSGITIDFLTDKLYWCDAKQSVIEMANLDGSKRRRLTQNDVGHPFAVAVFEDYVWFSDWAMPSVMRVNKRTGKDRVRLQGSMLKPSSLVVVHPLAKPGADPCLYQNGGCEHICKKRLGTAWCSCREGFMKASDGKTCLALDGHQLLAGGEVDLKNQVTPLDILSKTRVSEDNITESQHMLVAEIMVSDQDDCAPVGCSMYARCISEGEDATCQCLKGFAGDGKLCSDIDECEMGVPVCPPASSKCINTEGGYVCRCSEGYQGDGIHCLDIDECQLGEHSCGENASCTNTEGGYTCMCAGRLSEPGLICPDSTPPPHLREDDHHYSVRNSDSECPLSHDGYCLHDGVCMYIEALDKYACNCVVGYIGERCQYRDLKWWELRHAGHGQQQKVIVVAVCVVVLVMLLLLSLWGAHYYRTQKLLSKNPKNPYEESSRDVRSRRPADTEDGMSSCPQPWFVVIKEHQDLKNGGQPVAGEDGQAADGSMQPTSWRQEPQLCGMGTEQGCWIPVSSDKGSCPQVMERSFHMPSYGTQTLEGGVEKPHSLLSANPLWQQRALDPPHQMELTQ
# modifications: Pro-epidermal growth factor
# notes: Non-encapsulated recombinant human epidermal growth factor; 75 μg of lyophilised rhEGF similar to commercialised Heberprot
# Experiments:
# db/db mice [1] = assay: Histological estimation of wound healing: inflammation score (Cotran scale 0-4); assay type: in vivo; conditions: 75 μg rhEGF intralesionally (free rhEGF twice a week; rhEGF-MS once)
# Large White pigs [2] = assay: In vivo wound healing in pigs, serial analysis of healed wounds (closure above 95%); conditions: rhEGF-NLC 20 μg topically, free rhEGF 75 μg intralesionally, twice a week
# Source text: All the protocols and procedures used were previously approved by the Institutional Animal Care and Use Committee from the Jesús Usón Minimally Invasive Surgery Centre (JUMISC). Six female Large White pigs, with a mean weight of 26.82±2.90 kg at the beginning of the study, distributed in individual pens of 2.90 m×1.35 m were used. All the animals of the study were randomly distributed in acclimated rooms, where the following housing conditions were established: 12-hour light-dark cycle, temperature between 20 and 25° C., eight air changes per hour with HEPA-filtered ventilation and relative humidity between 50 and 70%. As pen environmental enrichment, hanging chains and chewing rubber toys were installed as chewable elements. After an acclimatization period, the animals were identified by ear tag codes to be included in the study. […]
# Wound healing kinetic was determined by measuring the wound closure (percentage of initial wound area closed) on days 1, 15, 25, 36 and 43. The wound area was assessed, in a standardized manner, taken photographs perpendicularly to the wound surface, using the same illumination and placing a transparent plastic sterile ruler next to the wounds to introduce a metric reference in the pictures for further processing. The wound area was calculated using the image software ImageJ (see section 5.3). […]
# db/db mice [3] = assay: In vivo wound healing, wound closure (wound area); conditions: 75 μg rhEGF intralesionally (free rhEGF twice a week; rhEGF-MS once)
# [4] = rhEGF plasma concentration (systemic absorption), ELISA; assay type: in vivo, pigs; conditions: 30 minutes after first dose; free rhEGF 75 μg intralesionally
# Experimental: (§1) Treatment administration began 24 hours after wound induction (day 1 of the study) to allow primary homeostasis, platelet adhesion and aggregation, and activation of the coagulation cascade. The animals were randomly divided into three groups (n=2): (i) empty NLC, (ii) 20 μg rhEGF-NLC and (iii) 75 μg free rhEGF. Nanoparticles previously resuspended in 150 μl of vehicle (0.5% carboxymethylcellulose in 0.9% saline) were topically administered twice a week by spreading them over the wound bed. Free rhEGF, resuspended in 1 ml of vehicle, was intralesionally administered twice a week.
# In addition, plasma samples from the rhEGF-NLC and free rhEGF treated animals were collected to assess rhEGF systemic absorption. rhEGF detection was performed by ELISA (human EGF ELISA development kit, PeproTech). Samples were drawn when the plasma rhEGF levels were expected to be higher. Thus, samples from the animals treated with rhEGF-NLC were collected on day 1 of the experiment (prior to the treatment administration), 4 hours and 24 hours after administration. Plasma samples from the animals treated with free rhEGF were obtained just after administration and 30 minutes after the first dose. […]
# Balb/C 3T3 fibroblast = assay: Proliferation assay with rhEGF-loaded nanoparticles (CCK-8); assay type: cell-based; conditions: 15 ng/ml rhEGF, after 48 hours and 72 hours, FIG. 1
# Experimental: 24-well plate was used for the proliferation assay. 35000 Balb/C 3T3 fibroblast resuspended in 1 ml of completed culture medium (DMEM supplemented with 10% FCS) were seeded in each well. After 8 hours of incubation, the medium was replaced by 1 ml of 0.2% FCS supplemented DMEM and cells were incubated overnight. Then, medium was replaced by 1 ml of: (i) 0.2% FCS-supplemented DMEM, (ii) 15 ng/ml of free rhEGF in 0.2% FCS-supplemented DMEM, (iii) empty SLN in 0.2% FCS-supplemented DMEM, (iv) 15 ng/ml of rhEGF-loaded SLN (rhEGF-SLN) in 0.2% FCS-supplemented DMEM, (v) empty NLC in 0.2% FCS-supplemented DMEM and (vi) 15 ng/ml of rhEGF-loaded NLC (rhEGF-NLC) in 0.2% FCS-supplemented DMEM.
# The cells were cultured under the same conditions for 24 hours, 48 hours and 72 hours. The experiments were performed in triplicate. After the different incubation intervals, 100 μl of CCK-8 (Sigma-Aldrich, Saint Louise, USA) was added to each well (Zhou, Y., Qian, M., Liang, Y., Liu, Y., Yang, X., Jiang, T., Wang, Y., 2011. Effects of Leukemia Inhibitory Factor on Proliferation and Odontoblastic Differentiation of Human Dental Pulp Cells. J. Endod. 37, 819-824). After 4 hours of incubation, absorbance was read at 450 nm and at 650 nm as the reference wavelength. The absorbance was directly proportional to the number of living cells in culture.
# Large White pigs [5] = assay: Histological assessment in pigs: wound maturity and healing quality (Cotran criteria); assay type: in vivo; conditions: rhEGF-NLC 20 μg topically, free rhEGF 75 μg intralesionally
# Experimental: as §1
# Complete skin thickness biopsies from the centre of the unhealed wound to the healthy margin (2 mm) were collected using a sterile scalpel. Collected samples were immediately fixed in 4% formalin, embedded in paraffin and excised in 5-μm thick layers. Samples were stained with haematoxilyn-eosin (HE) for morphological observations. Biopsies were collected on day 15 for wounds 1, 2 and 3 and on days 25 and 43 for all of the wounds. On day 36, wound images were taken but no biopsies were collected not to delay wound healing.
# Wound healing was determined in terms of the re-epithelization grade by measuring the newly formed epithelia, and wound maturity and healing quality according to the Cotran et al. (2000) criteria.
# db/db mice [6] = assay: Histological estimation of wound healing: re-epithelization score (Sinha criteria 0-4); assay type: in vivo; conditions: 75 μg rhEGF intralesionally (free rhEGF twice a week; rhEGF-MS once), scale 0-4
molecule,measurement,setting,value
B1,Inflammation score Day 16,db/db mice [1],2.75 ± 0.95
same,Inflammation score Day 8,db/db mice [1]; listed as Free rhEGF,1.75 ± 0.71
same,Inflammation score Day 8,db/db mice [1]; listed as rhEGF,2.13±0.64
same,percentage of healed wounds,Large White pigs [2]; day 25,40%
same,wound closure state,Large White pigs [2]; day 36,completely closed
same,Wound healing 4th day,db/db mice [3],8.42 ± 3.96%
same,Wound healing 7th day,db/db mice [3],19.94 ± 5.21%
same,Wound healing 11th day,db/db mice [3],44.80 ± 2.64%
same,Wound healing 14th day,db/db mice [3],61.83 ± 2.99%
same,rhEGF plasma concentrations,[4],0.20 ± 0.01 ng/mL
same,cell proliferation compared with control groups,Balb/C 3T3 fibroblast,greater cell proliferation
same,extension of inflammatory tissue (Grade 2),"Large White pigs [5]; day 15, FIG. 10A",mainly showed a diffuse acute inflammation
same,wound maturity and healing quality (healing grade),"Large White pigs [5]; day 25, FIG. 10B",still showed chronic inflammation
same,Re-epithelization score Day 8,db/db mice [6],1.25±0.89
same,Re-epithelization score Day 16,db/db mice [6],2.71 ± 0.49
same,Re-epithelization score Day 8,db/db mice [6]; listed as Free rhEGF,1.25 ± 0.89
